The data set can be described thus: soluble on expression in E. coli; label from the status in PepcDB or PDB records.
In the case of “MAMVSEFLKQAWFIDNEEQEYIKTVKGSKGGPGSAVSPYPTFNPSSDVEALHKAITVKGVDEATIIEILTKRTNAQRQQIKAAYLQEKGKPLDEALKKALTGHLEEVALALLKTPAQFDADELRAAMKGLGTDEDTLNEILASRTNREIREINRVYKEELKRDLAKDITSDTSGDYQKALLSLAKGDRSEDLAINDDLADTDARALYEAGERRKGTDLNVFITILTTRSYPHLRRVFQKYSKYSKHDMNKVLDLELKGDIENCLTVVVKCATSKPMFFAEKLHQAMKGIGTRHKTLIRIMVSRSEIDMNDIKACYQKLYGISLCQAILDETKGDYEKILVALCGGD”, the “soluble on expression in E. coli” value is listed as “soluble”.

For “MGSDKIHHHHHHVHLTYENTNEEIIAVKRKPRHQPPHLHNAMEIVCVTKGTLELGVGQELYHMETGDIGVVFPDVIHHYQVFSSEVNEAVFINAPQMIFGRFENVLRNNAPQYPVVKSDVIPDEVYRAVESIIDTGQNDIWVVQAYLQIILARCIPMMKLVEKSKIGSDDIIYRTVSYISANFNKSISLDGMAHDLGVSKFSLSRLFSKTFHSSFNQYVNEARLGYACQRIETTDDTLTEISMDSGFGSLRTFNRVFKEKYRLTPSEYRNKLQI”, the “soluble on expression in E. coli” value is “not soluble”.

Consider “MKIYYEHDADLGFILGKKVAVLGFGSQGHAHALNLKDSGVDVRVGLRKGSRSWEKAEAAGLRVLPVAEAVREADVVMVLLPDEKQAQVYREEVEPNLKEGGALAFAHGFNVHFGQIKPRKDLDVWMVAPKGPGHLVRSEYQKGSGVPALVAVHQDASGSAFPTALAYAKAIGAARAGVIATTFKDETETDLFGEQAVLCGGLTRLIRAGFETLVEAGYPPEMAYFETVHEVKLIVDLIYEAGLKGMRYSISNTAEYGDYTRGDLAVPLEETKRRMREILRQIQSGEFAREWMLENQVGSPVLEANRKRWAAHPIEEVGSRLRAMMPFLKARVMEEVG”, for which the “soluble on expression in E. coli” value is given as “soluble”.

For the sequence “STQVSQATSQPINFQVQKDGSSEKSHMDDYMQHPGKVIKQNNKYYFQTVLNNASFWKEYKFYNANNQELATTVVNDNKKADTRTINVAVEPGYKSLTTKVHIVVPQINYNHRYTTHLEFEKAIPTLADAAK”, the “soluble on expression in E. coli” value is reported as “not soluble”.

“HMKIAIFGTVGAGKSTISAEISKKLGYEIFKEPVEENPYFEQYYKDLKKTVFKMQIYMLTARSKQLKQAKNLENIIFDRTLLEDPIFMKVNYDLNNVDQTDYNTYIDFYNNVVLENLKIPENKLSFDIVIYLRVSTKTAISRIKKRGRSEELLIGEEYWETLNKNYEEFYKQNVYDFPFFVVDAELDVKTQIELIMNKLNSIKNPN”: the “soluble on expression in E. coli” value is “soluble”.

As to “MKKVSIIIPFKGQTEAELMLPLSSIYNQIGVDLSQLDIHLVNDGGKTIDLSKFDVLADRLEIHYHEIPNGGPGVARQYGIDNSISEYIMFIDADDVLYYVGALWPFYNASNQGHQMIRASYWEQIAGNPYTYTVHGNGDRKAAYGKWYKRSYIEMLGLRFMPDLPIYEDTYFVGLACELATDTCFLEEKVYMWLANPNSITRTVENKFNYQAHIYARENRYWFEMIRKWKPECLVTDFENYLTNMYLKSQKYPPVDEKAWWEEQHKLITSVSDIFSGWTQELQKQVELEHHHHHH”, the “soluble on expression in E. coli” value is given as “not soluble”.

Regarding “MAHHHHHHMEDVRPVTSPLTEDTAYTRCLRGAKEAKERGNTAISDKNFKEASFQYKKALLFLSEYIPGDGGFSEDALIDMLARRRGVATPRDLSPGRKSELMDLYVTVMNNLAVADMRLCRFDKGVEHTTKVLNVPGQEKNRKALWRRAECHVQRGHIEEAEKDVDVLAACAEGNGQQSEEVVEQLRMKIKEKKKQLVREERAICKKMFEHGS”, the “soluble on expression in E. coli” value is “soluble”.

As to “MQIRFAGIGGQGVVLAGVILGEAAAIEGLRVLQTQDYSSASRGGHSIADVIISNEEIYDVMVTEADVLVALHQLGYETAKSKLKKDGILIIDTDLVKPDREYIGAPFTRIAEETTGLALTVNMVALGYLIGKTQIVKPESVEEAIRRRVPKGTEEINIKAFRKGLEVSMNE”, the “soluble on expression in E. coli” value is given as “not soluble”.

As for “MTDYDLAKETAAWLNKQLQIRPVLGIVCGSGLGKIGDSLETSITVAYSDIPNFPVGSVKGHAGSLIFGSVNGVSCVCMKGRFHLYEGHTAARATFPMRVFKALGVKIVVLTNAAGGLNPSYRPGDFMVVRDHINLPGLAGANPLTGPNDDTEGERFPSMTSVYDKTLRKYAISAARELGMSYATHEGVYCCVNGPSFETPAECKILRLMGSDAVGMSTAPETIVAKHGGMRCLAVSLISNVIASNCETPAEPTHEEVLRAGEEASARMTALVKLVIEKIRGELPR”, the “soluble on expression in E. coli” value is on record as “soluble”.

On to “MDSGRLAVIALGGNAIAGPGMDVSVESQTAAVKRASSIIADVLADGWRSVITHGNGPQVGYLSEAFEALPPERPRQPLYIATAMTQAWIGLLLKHSLEEELRRRGLNVLVPVVISRVLVDVSDPSFNNPSKPVGPIYGREEAEELSRRYGWVFKRDPRGGFRRVVPSPRPVSIVDRDLIAEASAESPAVVALGGGGVPVVERPGGVLEPVEAVVDKDLASSLLATQLNADLLVILTDVPGVAVNYGREGERWLRRAAASELKKYLREGHFPPGSMGPKVEAAISFVERTGKPAVIGSLEEARQVLSLQAGTVVMLG”, for which the “soluble on expression in E. coli” value is listed as “soluble”.

Consider “MSLPIRIDKKLPAVEILRTENIFVMDDQRAAHQDIRPLKILILNLMPQKMVTETQLLRHLANTPLQLDIDFLYMESHRSKTTRSEHMETFYKTFPEVKDEYFDGMIITGAPVEHLPFEEVDYWEEFRQMLEWSKTHVYSTLHICWGAQAGLYLRYGVEKYQMDSKLSGIYPQDTLKEGHLLFRGFDDSYVSPHSRHTEISKEEVLNKTNLEILSEGPQVGVSILASRDLREIYSFGHLEYDRDTLAKEYFRDRDAGFDPHIPENYFKDDDVNQVPCLCWSSSAALFFSNWVNHAVYQETPFDWRKIEDDASAYGYLEGHHHHHH”, for which the “soluble on expression in E. coli” value is “soluble”.

In the case of “MGSDKIHHHHHHMSVTNVTREELWAKQHLSCKNMDYAVWERDKSMLQKLSRINGGCSFVVDVYKGCYAYASTGFVDWLGYDRHKIETLEKQGDYLESRIHPHDRSQLEDLQVRLGKFIYNQPFEHRNDYCNVYSFRILNARGNYVRVTSRHQVLEQSHDGKAWLIIGNMSMAPGQKESEQVECTVLNLRNGEMFSPGVVIMNPAFGLTGREMEILRLIQRGFLSKEIADKLCISIHTVHIHRQNLLRKLGVQNSLEAIRLGQESGLLS”, the “soluble on expression in E. coli” value was “not soluble”.

Regarding “MAHHHHHHMSGAFGCGSYRSVVAGTQNVPRRMTFYPSAYELIQLHKAHREVIRHFYVRDKIFDNKFPGNALANGLFKFVPNRRENYHMRELMESIRRRSIWMHRIKQQREINAKVVENMEVKYGKKAAASMLCFTTPDSNAYFAPHRYQDVANSWPNYWQHPSVNHVVPKPRWRRHRELGGITRVEDPFAVQASDY”, the “soluble on expression in E. coli” value was “not soluble”.

“VLTEMRADARVAILEELSEAELNFTLAKLDNLSLIEWAESLPDDIFSLALQLISRDELDLYDDAKQYDDDEVGHWADRKIATLPFNVSVGRAKKLLKTNLFESHQYMHLINRAHKFHGIVQYTDILTADDSVKINTLKLEDCLVLNVHQPLSESIEAIEHSAVPSVAIVDDENTLIGQLDWQFAINTQREIYETRLMAGTGMDEGDDLFSPIIKSSKKRGV”: the “soluble on expression in E. coli” value is “not soluble”.

Consider “MGSDKIHHHHHHQGPQCNHAQLPFQQMTPVPYDSTPYSPQDTMPEQCSNPEVEAYIADWEAGKIDFTTIKANDSIAADQRFCKTLDDDGNISEVKDCDRTKSPVGYIWKELSDSPVVIGITDGGKSDHAPHFHGQPECYYVVNGEGQTLADNQFKKLGTGQYFYIPGATIHNTPIMSEKGLGVIYWYPNNAHFDGFKYYWRKDVKNLRVAEEAFDRVDAIRKRDLNLGPYGTNEAFFKK”, for which the “soluble on expression in E. coli” value was “not soluble”.

For “MSPEQSPFHAGELAIQERAGVREQVAGFGSRAIRTFMPDQHREFFALLSLLLVGSLDADGYPSASVLWGPPGFARSPEPTRLRIDNLPQADDPLAANLEAGTRLGILGLEWPTRRRNRMNGRVLARDGKGFTVGVEQSFGNCPKYIQARSHQPVSRIASPALQGEGLDPRWLSLVSCSDTLFIASQHADPLRGGVDVSHRGGPPGFLRLGADGRLWLPDYAGNRLFNTLGNLLQDPRCGLLFIDFDNGDLLHLHAEAELFWPGSQPSIPWPAGAERLLALRPAGWRWRRGRLPLAFGEPQPSPFLPAGES”, the “soluble on expression in E. coli” value is reported as “not soluble”.

Regarding “MLELSESNIHLNANAIDKQQAIEMAVSALVQAGNVENGYLQGMLARELQTSTFLGNGIAIPHGTLDTRLMVKKTGVQVFQFPQGIEWGEGNIAYVVIGIAARSDEHLSLLRQLTHVLSDEDTAAKLAKITDVAEFCAILMGETIDPFEIPAANISLDVNTQSLLTLVAINAGQLQVQSAVENRFISEVINNAALPLGKGLWVTDSVVGNVKNALAFSRAKTIFSHNGKAVKGVITVSAVGDQINPTLVRLLDDDVQTTLLNGNSTEILTALLGSSSDVETQSVEGAVVGTFTIRNEHGLHARPSANLVNEVKKFTSKITMQNLTRESEVVSAKSLMKIVALGVTQGHRLRFVAEGEDAKQAIESLGKAIANGLGENVSAVPPSEPDTIEIMGDQIHTPAVTEDDNLPANAIEAVFVIKNEQGLHARPSAILVNEVKKYNASVAVQNLDRNSQLVSAKSLMKIVALGVVKGTRLRFVATGEEAQQAIDGIGAVIESGLGE”, the “soluble on expression in E. coli” value is “not soluble”.

For “PMILGYWNVRGLTHPIRLLLEYTDSSYEEKRYAMGDAPDYDRSQWLNEKFKLGLDFPNLPYLIDGSRKITQSNAIMRYLARKHHLCGETEEERIRVDVLENQAMDTRLQLAMVCYSPDFERKKPEYLEGLPEKMKLYSEFLGKQPWFAGNKITYVDFLVYDVLDQHRIFEPKCLDAFPNLKDFVARFEGLKKISDYMKSGRFLSKPIFAKMAFWNPK”, the “soluble on expression in E. coli” value is listed as “soluble”.

Consider “MQLGETAEEACLRELYEETGLQLEIERLAFIHENFFTGQESDFLNKVNCHELSFYFLMKPLTENLSVKSESFGTDGSKEFLKWIPIAEYKNYKAFPTFFADELKNLSVNSQIKRIVTTELEHHHHHH”, for which the “soluble on expression in E. coli” value is given as “not soluble”.

On to “MHWGVGFASSRPCVVDLSWNQSISFFGWWAGSEEPFSFYGDIIAFPLQDYGGIMAGLGSDPWWKKTLYLTGGALLAAAAYLLHELLVIRKQQEIDSKDAIILHQFARPNNGVPSLSPFCLKMETYLRMADLPYQNYFGGKLSAQGKMPWIEYNHEKVSGTEFIIDFLEEKLGVNLNKNLGPHERAISRAVTKMVEEHFYWTLAYCQWVDNLNETRKMLSLSGGGPFSNLLRWVVCHITKGIVKREMHGHGIGRFSEEEIYMLMEKDMRSLAGLLGDKKYIMGPKLSTLDATVFGHLAQAMWTLPGTRPERLIKGELINLAMYCERIRRKFWPEWHHDDDNTIYESEESSEGSKTHTPLLDFSFYSRTETFEDEGAENSFSRTPDTDFTGHSLFDSDVDMDDYTDHEQCK”, for which the “soluble on expression in E. coli” value is listed as “not soluble”.

Take “MGSDKIHHHHHHMSLPLYQQISDDLKQKIVTKTFKSGDQLPTEKELSETYSVSRITAKRALTELEQLGLVSRTRGKGTFVQELNKNHTKLLKRVLFIIPFEGMSFGDFTQGLVPALKVENTTVFITYESYLKENTADDIKENFDGLIYYPMYTEDYLDILLELSLQNFPVVLLDKQIYDLGFPCVSSDNFNGGEQAAQALLNLGHKRIAFVASNDTHHPQTTRNRYLGYVKVLKEQGIKFHTTLDDSLYTESSVLELIHNEKVTGLICENDLVALQTMKTLQDSHFSVPNDISIIGFDDIQAASLSNPPLTTIAQDFIGMGRIAGELLLDWIKSGQTPKDVKVPINLIKRKTTEELK”: the “soluble on expression in E. coli” value is listed as “not soluble”.

The values above are taken from the DeepSol protein solubility set.
